Experimental data reported in the supplement of paper PMC9112550, “Optimization of the antimicrobial peptide Bac7 by deep mutational scanning” (BMC Biology, 2022).

tested on: Escherichia coli TOP10; test: shrunken log2 fold change of peptide-encoding DNA abundance (4.5 h post-induction vs induction); higher = less antimicrobial activity (less host growth inhibition); details: time post-induction: 4.5 h; library: site-saturation at positions 5, 18, 19, 20
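Further: peptides expressed intracellularly from a pBAD plasmid library in pooled LB shake-flask culture, induced with 0.3% L-arabinose, DNA abundance read by NGS, three biological replicates, DESeq2 with apeglm shrinkage.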

Point of comparison: RRIRWRPPRLPRPRPRPTDEPRP, “shrunken log2 fold change” value 0.582. Against it:
- RRIRYRPPRLPRPRPRPLNIPRP — lower, -1.1
- RRIRPRPPRLPRPRPRPPCWPRP — within 0.2 log units, 0.468
- RRIRIRPPRLPRPRPRPSMAPRP — lower, -0.531
- RRIRNRPPRLPRPRPRPTNDPRP — lower, 0.0554
- RRIRTRPPRLPRPRPRPAPCPRP — lower, 0.18
- RRIRGRPPRLPRPRPRPNGTPRP — within 0.2 log units, 0.54
- RRIRRRPPRLPRPRPRPHVAPRP — lower, -0.138
- RRIRMRPPRLPRPRPRPTCMPRP — lower, 0.262
- RRIRNRPPRLPRPRPRPEAGPRP — lower, -0.0775
- RRIRVRPPRLPRPRPRPAVNPRP — lower, 0.138
- RRIRERPPRLPRPRPRPWPAPRP — lower, 0.238
- RRIRKRPPRLPRPRPRPVAYPRP — lower, -0.109
- RRIRLRPPRLPRPRPRPDNVPRP — lower, 0.0219
- RRIRNRPPRLPRPRPRPRDLPRP — lower, 0.186
- RRIRKRPPRLPRPRPRPQELPRP — lower, 0.329
- RRIRWRPPRLPRPRPRPMTHPRP — lower, -0.0884
- RRIRYRPPRLPRPRPRPRGLPRP — lower, -0.0424
- RRIRVRPPRLPRPRPRPNVRPRP — lower, -0.0431
- RRIRKRPPRLPRPRPRPALSPRP — lower, 0.253
- RRIRMRPPRLPRPRPRPHMAPRP — lower, 0.0168
- RRIRLRPPRLPRPRPRPDIDPRP — lower, 0.0249
- RRIRCRPPRLPRPRPRPAHWPRP — lower, 0.337
- RRIRQRPPRLPRPRPRPYIRPRP — lower, -0.197
- RRIRKRPPRLPRPRPRPRYIPRP — lower, -0.268
- RRIRKRPPRLPRPRPRPAEGPRP — lower, 0.305
- RRIRYRPPRLPRPRPRPHTKPRP — lower, -0.149
- RRIRKRPPRLPRPRPRPMFQPRP — lower, -0.0168
- RRIRRRPPRLPRPRPRPWNIPRP — lower, -0.0317
- RRIRQRPPRLPRPRPRPRCPPRP — lower, 0.313
- RRIRIRPPRLPRPRPRPQANPRP — lower, 0.00435
- RRIRHRPPRLPRPRPRPPGVPRP — lower, 0.0725
- RRIRTRPPRLPRPRPRPHRGPRP — lower, -0.154
- RRIRARPPRLPRPRPRPVFRPRP — lower, 0.143
- RRIRHRPPRLPRPRPRPCNHPRP — lower, -0.292
- RRIRFRPPRLPRPRPRPKIEPRP — lower, -0.202
- RRIRTRPPRLPRPRPRPYWSPRP — lower, 0.00748
- RRIRIRPPRLPRPRPRPFSAPRP — lower, -0.517
- RRIRMRPPRLPRPRPRPKDRPRP — higher, 1.87
- RRIRFRPPRLPRPRPRPDTNPRP — lower, -0.208
- RRIRCRPPRLPRPRPRPWWHPRP — lower, -0.523
- RRIRPRPPRLPRPRPRPARMPRP — within 0.2 log units, 0.487
- RRIRFRPPRLPRPRPRPAGLPRP — lower, -0.0796
- RRIRFRPPRLPRPRPRPAPYPRP — higher, 1.75
- RRIRSRPPRLPRPRPRPYRAPRP — lower, -0.019
- RRIRCRPPRLPRPRPRPTCGPRP — lower, 0.111
- RRIRARPPRLPRPRPRPACDPRP — higher, 0.851
- RRIRIRPPRLPRPRPRPDPWPRP — lower, 0.0621
- RRIRIRPPRLPRPRPRPGVRPRP — lower, 0.135
- RRIRTRPPRLPRPRPRPVSMPRP — lower, -0.812
- RRIRNRPPRLPRPRPRPEFAPRP — lower, 0.175
- RRIRDRPPRLPRPRPRPYQKPRP — lower, 0.0212
- RRIRKRPPRLPRPRPRPHHRPRP — lower, -0.0531
- RRIRPRPPRLPRPRPRPQNLPRP — lower, -0.0683
- RRIRGRPPRLPRPRPRPLEYPRP — lower, 0.123
- RRIRIRPPRLPRPRPRPWKEPRP — lower, -0.12
- RRIRVRPPRLPRPRPRPSIKPRP — lower, -0.552
- RRIRARPPRLPRPRPRPYQQPRP — lower, -0.316
- RRIRERPPRLPRPRPRPEEPPRP — lower, 0.139
- RRIRKRPPRLPRPRPRPHMYPRP — lower, -0.131
- RRIRGRPPRLPRPRPRPRKWPRP — within 0.2 log units, 0.413
- RRIRQRPPRLPRPRPRPHNEPRP — lower, -0.161
- RRIRWRPPRLPRPRPRPVKTPRP — lower, 0.00121
- RRIRSRPPRLPRPRPRPVDRPRP — lower, 0.0715
- RRIRLRPPRLPRPRPRPYQFPRP — lower, -0.0128
- RRIRTRPPRLPRPRPRPMTKPRP — lower, -0.0084
- RRIRTRPPRLPRPRPRPEWVPRP — within 0.2 log units, 0.457
- RRIRFRPPRLPRPRPRPMTNPRP — lower, -0.2
- RRIRARPPRLPRPRPRPDDPPRP — within 0.2 log units, 0.632
- RRIRFRPPRLPRPRPRPRCLPRP — lower, -0.124
- RRIRDRPPRLPRPRPRPRVWPRP — lower, 0.352
- RRIRWRPPRLPRPRPRPYGWPRP — lower, -0.0271
- RRIRIRPPRLPRPRPRPKTRPRP — lower, -0.117
- RRIRCRPPRLPRPRPRPVEGPRP — lower, 0.0501
- RRIRGRPPRLPRPRPRPWWLPRP — lower, 0.0131
